Consider 76 variants from the RNAGym collection of RNA variant scans (doi:10.7554/elife.80360).

To fix the notation:
B1: Hairpin Ribozyme (parent)
chain: GUCCUCUUUCACGUGCGCGUGAAAGAGAGAAGUGAACCAGAGAAACACACGUUGUGGUAUAUUACCUGGUA

Variants of B1 are the subject of the data set. Put plainly: self-cleavage, relative activity (ratio to wild type); higher = more cleavage; co-transcriptional.
On to GUCCUCUUUCAAGUGCGCGUGAAAGAGAGAAGUGAAACAGAGAAACACACGUUGUGGUAUAUUACCUGGUA, for which the self-cleavage came to 0.27.
For the variant GUCCUCUUUCAAGUGCGCGUGAAAGAGAGAAGUGAAGCAGAGAAACACACGUUGUGGUAUAUUACCUGGUA, the self-cleavage was determined as 0.259.
In the case of GUCCUCUUUCAGGUGCGCGUGAAAGAGAGAAGUGAACCAGAGAAACCCACGUUGUGGUAUAUUACCUGGUA, the self-cleavage came to 0.417.
In the case of GUCCUCUUUCAAGUGCGCGUGAAAGAGAGAAGUGAACCAGAGAAACACACGUUGUGGUAUACUACCUGGUA, the self-cleavage stood at 0.0739.
For GUCCUCUUUCAGGUGCGCGUGAAAGAGGGAAGUGAACCAGAGAAACACACGUUGUGGUAUAUUACCUGGUA, the self-cleavage was determined as 0.889.
Next, GUCCUCUUUCAGGUGCGCGUGCAAGAGAGAAGUGAACCAGAGAAACACACGUUGUGGUAUAUUACCUGGUA: 0.518; GUCCUCUUUCAAGUGCGCGUGAAAGAGAGAAGUGAACCAGAGAAACACACGUUGUGGUAUAUUACUUGGUA: 0.418.
Take GUCCUCUUUCAAGUGCGAGUGAAAGAGAGAAGUGAACCAGAGAAACACACGUUGUGGUAUAUUACCUGGUA: the self-cleavage came to 0.812.
Consider GUCCUCUUUCUCGUGCGCGUGAAAGAGAGAAGUGAACCAGAGAAACACACGUUGAGGUAUAUUACCUGGUA, for which the self-cleavage was found to be 0.154.
Regarding GUCCUCUUUCAAGUGCGCGUGAAAGAGAGAAGUGAACCAGAGAACCACACGUUGUGGUAUAUUACCUGGUA, the self-cleavage came out at 0.137.
As for GUCCUCUUUCAGGUGCGCGUGAACGAGAGAAGUGAACCAGAGAAACACACGUUGUGGUAUAUUACCUGGUA, the self-cleavage came out at 0.613.
Consider GUCCUCUUUCAGGUGCGCGUGAAGGAGAGAAGUGAACCAGAGAAACACACGUUGUGGUAUAUUACCUGGUA, for which the self-cleavage turned out to be 0.778.
Next, GUCCUCUUUCAAGUGCGCGUGAAAGAGAGAAGUGAACCAGAGAAACACACGUUGUGGUAUAUUACCUGGUA: 0.805; GUCCUCUUUCAGGUGCGCGUGAAAGAGAGAAGUGAACCAGAGAAACACACGUUGUGGUAUAUUACCUGGUA: 0.827; GUCCUCUUUCAAGUGCGCGUGAAAGAGAGAAGUGAACCAGAGAAACAGACGUUGUGGUAUAUUACCUGGUA: 0.137.
Take GUCCUCUUUCAAGUGCGCGUGAAAGAGAGAAGUGAACCAGAGAAACAAACGUUGUGGUAUAUUACCUGGUA: the self-cleavage was found to be 0.162.
For the variant GUCCUCUUUCUCGUGCGCGUGAAAGAGAGAAGUGAACCAGAGAAACACACGCUGUGGUAUAUUACCUGGUA, the self-cleavage stood at 0.891.
The value for GUCCUCUUUCAAGUGCGCGUGAAAGAGAGAAGUGAACCAGAGAAACACACGUCGUGGUAUAUUACCUGGUA was 0.939; that for GUCCUCUUUCAAGUGCGCGUGAAUGAGAGAAGUGAACCAGAGAAACACACGUUGUGGUAUAUUACCUGGUA was 0.584; that for GUCCUCUUUCAAGUGCGCGUGAAAGAGAGAAGUGAACCAGAGAAACACACGGUGUGGUAUAUUACCUGGUA was 0.757.
With GUCCUCUUUCAAGUGCGCGUGAAAGAGAGAAGUGAACCAGAGAAACACACGUUGUGGUAUAUCACCUGGUA, the self-cleavage is 0.2.
In the case of GUCCUCUUUCAGGUGCGCGUGAAAGAGAGCAGUGAACCAGAGAAACACACGUUGUGGUAUAUUACCUGGUA, the self-cleavage worked out at 0.0578.
Next, GUCCUCUUUCAGGUGCGCGUGAAAGAGAGGAGUGAACCAGAGAAACACACGUUGUGGUAUAUUACCUGGUA: 0.247; GUCCUCUUUCAGGUGCGCGUGAAAGAGAGUAGUGAACCAGAGAAACACACGUUGUGGUAUAUUACCUGGUA: 0.147; GUCCUCUUUCAAGUGCGCGUGAAAGAGAGAAGUGAACCAGGGAAACACACGUUGUGGUAUAUUACCUGGUA: 0.736.
The value for GUCCUCUUUCAAGUGCGCGUGAAAGAGAGAAGUGAACCAGAGAAAGACACGUUGUGGUAUAUUACCUGGUA was 0.161; that for GUCCUCUUUCUCGUGCGCGUGAAAGAGAGAAGUGAACCAGAGAAACACACGUUGUGGUAUAUAACCUGGUA was 0.22; that for GUCCUCUUUCUCGUGCGCGUGAAAGAGAGAAGUGAACCAGAGAAACACACGUUGUGGUAGAUUACCUGGUA was 0.509.
Next, GUCCUCUUUCUCGUGCGCGUGAAAGAGAGAAGUGAACCAGAGAAACACACGUUGUGGUAAAUUACCUGGUA: 0.708; GUCCUCUUUCAAGUGCGCGUGAAAUAGAGAAGUGAACCAGAGAAACACACGUUGUGGUAUAUUACCUGGUA: 0.559.
As for GUCCUCUUUCAAGUGCGCGUGAAAAAGAGAAGUGAACCAGAGAAACACACGUUGUGGUAUAUUACCUGGUA, the self-cleavage was determined as 0.486.
GUCCUCUUUCAAGUGCGCGUGAAAGAGAGAAGUGAACCAGAGAAACACACUUUGUGGUAUAUUACCUGGUA: the self-cleavage is 0.933.
Next, GUCCUCUUUCAAGUGCGCGUGAAAGAGAGAAGUGAACCAGAGAAACACACCUUGUGGUAUAUUACCUGGUA: 0.78.
Regarding GUCCUCUUUCAGGUGCGCGUGAAAGAGAGAAGUGAACCAGAGAAACACUCGUUGUGGUAUAUUACCUGGUA, the self-cleavage came out at 0.12.
GUCCUCUUUCAAGUGCGCGUGAAAGAGUGAAGUGAACCAGAGAAACACACGUUGUGGUAUAUUACCUGGUA: the self-cleavage was 0.34.
Next, GUCCUCUUUCAAGUGCGCAUGAAAGAGAGAAGUGAACCAGAGAAACACACGUUGUGGUAUAUUACCUGGUA: 0.876; GUCCUCUUUCAAGUGCGCUUGAAAGAGAGAAGUGAACCAGAGAAACACACGUUGUGGUAUAUUACCUGGUA: 0.995; GUCCUCUUUCAGGUGGGCGUGAAAGAGAGAAGUGAACCAGAGAAACACACGUUGUGGUAUAUUACCUGGUA: 0.806.
Take GUCCUCUUUCAGGUGAGCGUGAAAGAGAGAAGUGAACCAGAGAAACACACGUUGUGGUAUAUUACCUGGUA: the self-cleavage was determined as 0.84.
The value for GUCCUCUUUCAGGUGCGCGUGAAAGAGAGAAGUGAACCAGAGAUACACACGUUGUGGUAUAUUACCUGGUA was 0.147; that for GUCCUCUUUCAGGUGCGCGUGAAAGAGAGAAGUGAACCAGAGAGACACACGUUGUGGUAUAUUACCUGGUA was 0.156; that for GUCCUCUUUCAAGUGCGCGUGAAAGAGAGAAGGGAACCAGAGAAACACACGUUGUGGUAUAUUACCUGGUA was 0.175.
The value for GUCCUCUUUCAAGUGCGCGUGAAAGAGAGAAGUGAACCAGAGAAACACACGUUCUGGUAUAUUACCUGGUA was 0.389; that for GUCCUCUUUCAAGUGCGCGUGAAAGAGAGAAGUGAACCAGAGAAACACACGUUUUGGUAUAUUACCUGGUA was 0.53; that for GUCCUCUUUCAAGUGCGCGUGAAAGAGAGAAGUGAACCAGAGAAACACACGUUGUGGUAUAUUUCCUGGUA was 0.176.
Consider GUCCUCUUUCAAGUGCGCGUGAAAGAGAGAAGUGAACCAGAGAAACACACGUUGUGGUAUAUUACCUGAUA, for which the self-cleavage is 0.289.
GUCCUCUUUCAAGUGCGCGUGACAGAGAGAAGUGAACCAGAGAAACACACGUUGUGGUAUAUUACCUGGUA: the self-cleavage is 0.762.
Take GUCCUCUUUCAGGUGCGCGUGAAAGAGAGAAGUGAACCAGGGAAACACACGUUGUGGUAUAUUACCUGGUA: the self-cleavage amounted to 0.573.
For GUCCUCUUUCAAGUGUGCGUGAAAGAGAGAAGUGAACCAGAGAAACACACGUUGUGGUAUAUUACCUGGUA, the self-cleavage worked out at 0.977.
For GUCCUCUUUCAAGUGGGCGUGAAAGAGAGAAGUGAACCAGAGAAACACACGUUGUGGUAUAUUACCUGGUA, the self-cleavage came to 0.671.
GUCCUCUUUCUCGUGCGCGUGAAAGAGAGAAGUGAACCAGAGAAACACACGUUGUGGUAUAAUACCUGGUA: the self-cleavage stood at 0.148.
As to GUCCUCUUUCAAGUGCGCGUGAAAGAGAGAAGUGACCCAGAGAAACACACGUUGUGGUAUAUUACCUGGUA, the self-cleavage stood at 0.523.
For the variant GUCCUCUUUCAGGUGCGCGUGAAAGAGAGAAGUGAAACAGAGAAACACACGUUGUGGUAUAUUACCUGGUA, the self-cleavage worked out at 0.159.
As for GUCCUCUUUCAAGUGCGCGUGAAAGAGAGAAGUGAACCAAAGAAACACACGUUGUGGUAUAUUACCUGGUA, the self-cleavage was 0.237.
Regarding GUCCUCUUUCAAGUGCGCGUGAAAGAGAGAAGUGAACCAGAGAAACACACGUUGUGGUAUAUUAACUGGUA, the self-cleavage turned out to be 0.787.
As to GUCCUCUUUCAAGUGCGCGUGAAAGAGAGAAGUGAACCAGAGAAACACACGUUGUGGUAUAUUACCUGGGA, the self-cleavage is 0.673.
Next, GUCCUCUUUCAAGUGCGCGUGAAAGAGAGAAGUGAACCAGAGAAACACACGUUGUGGUAUAUUACCUGGCA: 0.722; GUCCUCUUUCAAGUGCGCGUGAAAGAGAGAAGUAAACCAGAGAAACACACGUUGUGGUAUAUUACCUGGUA: 1.21.
The value for GUCCUCUUUCAGGUGCGCGUGAAAGAGAGAAGUGAACCGGAGAAACACACGUUGUGGUAUAUUACCUGGUA was 0.29; that for GUCCUCUUUCAAGUGCGCGUGAAAGAGAGAAGUGAACCAGAGAAACACACGUUGUGUUAUAUUACCUGGUA was 0.172.
The value for GUCCUCUUUCAAGUGCGCGUGAAAGAGAGAAGUGAACCAGAGAAACACACGUUGUGAUAUAUUACCUGGUA was 0.255.
For the variant GUCCUCUUUCAAGUGCGCGUGAAAGAGAGAAGUGAACCAGAGGAACACACGUUGUGGUAUAUUACCUGGUA, the self-cleavage came to 0.116.
The value for GUCCUCUUUCAAGUGCGCGUGAAAGAGAGAAGUGAACCAGAGCAACACACGUUGUGGUAUAUUACCUGGUA was 0.257; that for GUCCUCUUUCAAGUGCGCGUGAAAGAGAGAAGUGAACCAGAGAAACCCACGUUGUGGUAUAUUACCUGGUA was 0.329.
With GUCCUCUUUCAAGUGCGCGUGAAAGAGAGAAGUGAACCAGAGAAACACACGUUGCGGUAUAUUACCUGGUA, the self-cleavage worked out at 0.208.
The value for GUCCUCUUUCAAGUGCGCGUGAAAGAGAGAAGUGUACCAGAGAAACACACGUUGUGGUAUAUUACCUGGUA was 0.635; that for GUCCUCUUUCAGGUGCGCGUGAUAGAGAGAAGUGAACCAGAGAAACACACGUUGUGGUAUAUUACCUGGUA was 0.753.
The value for GUCCUCUUUCAGGUGCGCGUGACAGAGAGAAGUGAACCAGAGAAACACACGUUGUGGUAUAUUACCUGGUA was 0.511; that for GUCCUCUUUCAGGUGCGCGUGAGAGAGAGAAGUGAACCAGAGAAACACACGUUGUGGUAUAUUACCUGGUA was 0.853.
The value for GUCCUCUUUCUCGUGCGCGUGAAAGAGAGAAGUGAACCAGAGAAACACACGUUGUGGAAUAUUACCUGGUA was 0.523.
Turning to GUCCUCUUUCUCGUGCGCGUGAAAGAGAGAAGUGAACCAGAGAAACACACGUUGUGGGAUAUUACCUGGUA, the self-cleavage came out at 0.65.
As for GUCCUCUUUCAAGUGCGCGUGGAAGAGAGAAGUGAACCAGAGAAACACACGUUGUGGUAUAUUACCUGGUA, the self-cleavage stood at 0.692.
The value for GUCCUCUUUCAGGUGCGCGUGAAAGAGAGAAGUGAACCAGAGAAACACACGUUGUGGUUUAUUACCUGGUA was 0.134; that for GUCCUCUUUCUCGUGCGCGUGAAAGAGAGAAGUGAACCAGAGAAACACACGUCGUGGUAUAUUACCUGGUA was 0.975; that for GUCCUCUUUCUCGUGCGCGUGAAAGAGAGAAGUGAACCAGAGAAACACACGUGGUGGUAUAUUACCUGGUA was 0.69.
In the case of GUCCUCUUUCAGGUGCGCGUGAAAGAGAGAAGUGAACCAGAGAACCACACGUUGUGGUAUAUUACCUGGUA, the self-cleavage came out at 0.0684.
